Here are results for ten molecules from US20180186897A1 (INSTITUTE FOR RESEARCH IN BIOMEDICINE, published 2018).

Sequences and labels used below:
B1: MGC4 (antibody)
VH: EVQLVESGGGLVQPGGSLRLSCEGSGFNSRSYWMTWVRQAPGKGLEWVASINQDGTEKNYVDSVKGRFTISRDSAKNSLYLQMSSLRADDTAVYYCARDRFCGGESHLHGEEDLPRPSISAEPDTVIPLGSHVTFVCRGPVGVHTFRLERGWRYNDTEDVSQAGPSESEARFRIDSVREGNAGLYRCIYYIAPKWSEQSDYLELRVKGGDVTWALLTYCGGDGEESDYPMDVWGKGTTVTVSS
VL: QTVVTQEPSLTVSPGGTVTLTCASSTGPVTSAYYPNWFQQKPGQAPRSLIYSINKKHSWTPARFSGSLLGGKAALTLSGVQPEDEADYYCLLSCGGAQPWVFGGGTKLTVQ
B2: MGD56 (antibody)
VH: QVQLQESGPGLVKPSGTLSLTCAVSGGSITTNNWWSWVRQTPGKGLEWIGEIFRSGTTNYNPSLKSRVAISLDKSKNQFSLKLTSVTAADTAVYYCATASPFKSQRDTKDLPRPSLSAEPGTVIPLGSHVTFVCRGPVGVQTFRLQRESRSLYNDTEDVSHPSPSESEARFRIDSVSEGNAGPYRCVYYKSSKWSEESDCLELLVKTEDVTWARPQPQLDPRACPRGDLRISTDVYYMDVWGKGTTVTVSS
VL: AIRMTQSPSSLSASTGDRVTITCRASQAITSYLAWYRQKPGKAPDLLIYNASTLQSGVPSRFSASGSGTDFALTITGLQSEDFVIYFCQHYYTYPPAFGQGTRLEIK
B3: MGD39 (antibody)
VH: QVRLQESGPGLVKPSGTLSLTCTVSGGSISAYRWWSWVRQAPGKGLEWIGQVYNDGNTNYNPSLKGRVAMSVDKSKNRFSLRLASVTAADTAVYYCATISPLRPQSDTDDLPRPSISAEPGTVIPLGSHVTFVCRGPIGVQTFRLERERRSLYSDTEDVSQVSPFASEARFRIDSVSEGNAGPYRCIYYKDRKWSDQSDYLELLVKGEDVTWALPQSQLAPRACPQEELNISTDIFSMNVWGKGTTVTVSS
VL: AIRMTQSPASLSASIGDRVTITCRTSHDVGNYLDWYQQKPGKAPKLLIHGASTLQTGVPSRFSGSGAGTDFTLNITCLQSGDFAMYYCQQYYSSPPGFGQGTRLEIK
B4: MGD55 (antibody)
VH: B3 VH with R3Q, R33K, N54H, D55N, R149S
VL: B3 VL with H27Q
B5: MGC28 (antibody)
VH: EVQLVESGGGLVQPGGSLRLSCEASGFTFSSYWMTWVRQAPGKGLEWVANINQDGSERYYVDSVKGRFTISRDTVKNSLYLQMNNLRAEDTAVYYCARQRFCSDGSLFHGEDLPRPTISAETGTVISLGSHVTFVCRGPLGVQTFRLERESRSRYSETEDVSQVGPSESEARFRIDSVSEGNAGLYRCIYYKPPKWSEQSDYLELRVKGEDVTWALLTYCGGDRDESDYYMDVWGKGTTVTVSS
VL: QTVVTQEPSLTVSPGGTVTLTCASSTGSVTSGSFPNWFQQTPGQAPRSLIYSTTKKHSWTPARFSGSLLGGKAALTVSDTQPEDEAEYYCLLYCGGGQPWVFGGGTKLTVL
B6: MGC17 (antibody)
VH: EVQLVESGGGLVQPGGSLKLSCVASGFNFRKSWMSWVRQAPGKGLEWVANIREDGSKAYYVDSVKGRFTVSRDNAKNSLYLQINSLRADDTAVYYCARDRFCSDDEDHSHGAEDLPRPSISAEEGTVIPLGSRLTFVCRGPVGVHTFRLERDRRSTYNDTEDVSHPSPSESEARFRIDSVSEGNAGLYRCVYYKSPEWSKQSDYLELLVKGQEVTWALFTSCGGDGEVPDYDMDVRGKGTTVTVSS
VL: DIVMTQSPDSLAVSLGERATINCKSSQSVLYRSKNKKYLAWFQQRPGQPPKVLIYWTSTRASGVPDRFSGSGSGTDFTLTISSLQADDVAVYYCQQYFIFPYTFGQGTKLEIR
B7: MGD47 (antibody)
VH: QVRLQESGPGLVKPSGTLSLTCTVSGGSISGYKWWSWVRQAPGKGLEWIGQVYDDGDTNYNPDLKGRVALSVDKSKSRFSLSLASVTAADTAIYFCATISPLRPQSDTGDLPRPSISAEPGTAIPLGSQVTFVCRGPIGVQTFRLERESRALYNDSEDVSQVSPSASEARFRIDSVSEGNAGPYRCIYYKARRWSDQSDYLELLVKGEDVTWALPQSQLAPRACPQEDLNISTDIFSTNVWGKGTTVTVSS
VL: AIRMTQSPASLSASVGDRVTITCRTSQDVGNYLDWYQQKPGKAPKLLIHGASTLQAGVPSRFNGSGSGTDFTLGISCVQSGDFAIYYCQQYYTSPPVFGQGTRLEIK
B8: MGC26 (antibody)
VH: EVQLVDSGGGLVQPGGSLRLSCAASGFTFSTYWMTWVRQTPGKGLEWVASIKQDGTERYYVDSVKGRFIISRDNAKNSLYLQMHSLRAEDTAVYYCVRDRFCRDHMHIEEDLPRPSISPEPATVIPLGSHVTIVCRGPVGVETFRLQKESRSLYNDTEDVSQPSPSESEARFRIDSVSEGHGGLYRCLYYKSSKWSEQSDYLEMLVKGEDVTWALFPYCGGDGEESDYYMDVWGKGTTVTVSS
VL: DIQLTQSPSTLSASVGDRVTISCRASQRLSRSLAWYQQRPRKAPNLLIYKASPLEIGGPSRFTGSGSGTEFTLTISSLQPDDSATYYCQQYSNYSYSFGQGTKLEIR
B9: MGD41 (antibody)
VH: EVQLVESGPGLVKPSGTLSVTCTISGGSINTDKWWTWVRQPPGKGLEWVGEVLHTGSTNYNPSLRGRVTISVDKSKNQFSLRLSSVTAADTAVYYCATISTLRPQRDIEDLPRPSLSAEPGTVVPLGSHVTFVCRGPVGVQTFRLERESRSTYNDTEDVSQPSPFESEARFRIDSVSEGNAGPYRCIYYKSPKWSDQSDYVELLVKGEDVTWAPPQSQLAPRACPQGELRTSTDIFSMNVWGKGTTVTVSS
VL: AIRMTQSPSSLSAFTGDRVTISCRASQDIGNYLDWYHQKPGRAPKLLIHGASTLLTGVPSRFSGSGSGTDFTLNITCLQSGDFGIYYCLQYYSSPPAFGPGTRLEIK
B10: MGC7 (antibody)
VH: EVQLVESGGDLVQPGGSLRLSCAASGFTFRNYWMSWVRQTPGKGLEWVANIRQDGSEKYYVDSVKGRFTISRDNAKNLLYLQMNSLRAEDTAVYYCVRDKFCSDENHMHVADDLPRPSISPEPGTVIPLGSHVTFVCRGPVGVQTFRLEKDRRSTYNDTEDVSQPSPSESEARFRIDSVTEGNAGLYRCVYYKPPKWSDQSDFLELLVKGEDVTWALFPHCGADGEDSDYYMDVWGKGTTVTVSS
VL: DIQMTQSPSSVSASVGDRVTITCRASQGLSTWLAWYQQKPGKAPKILIYAASSLQSGVPSRFSGSGSGTDFTLTISSLQPEDFATYYCQQANSFPLTFGGGTKVEIK

Where a chain is given by its changes, count along the chain named.

The target in one test is erythrocytes infected with P. falciparum field isolate 10936. Kind of test: flow cytometry, staining of IEs.
As to B1, the % parasite recognition came out at 2.3%.

B2 gave a % parasite recognition of 2.4%.

B3: the % parasite recognition was determined as 10.5%.

Consider B4, for which the % parasite recognition was 13.3%.

In turn, B5 showed a % parasite recognition of 3%.

Consider B6, for which the % parasite recognition turned out to be 2.4%.

In the case of B7, the % parasite recognition was 11.3%.

Consider B8, for which the % parasite recognition was found to be 3.6%.

Molecule B9 came in with a % parasite recognition of 6.1%.

B10 gave a % parasite recognition of 1.7%.

A further test addresses erythrocytes infected with P. falciparum field isolate 10975. Kind of test: flow cytometry, staining of IEs.
Molecule B1 registered a % parasite recognition of 6.7%.

B2 had a % parasite recognition of 6.7%.

Molecule B3 had a % parasite recognition of 14.1%.

B4: the % parasite recognition came out at 15.6%.

B5 displayed a % parasite recognition of 12.3%.

In the case of B6, the % parasite recognition came to 1.5%.

Molecule B7 gave a % parasite recognition of 11.2%.

Take B8: the % parasite recognition amounted to 7.3%.

For B9, the % parasite recognition stood at 7.3%.

B10 gave a % parasite recognition of 0.7%.

Another test deals with erythrocytes infected with P. falciparum field isolate 11014. The test can be described thus: flow cytometry, staining of IEs.
Consider B1, for which the % parasite recognition is 3.6%.

With B2, the % parasite recognition came out at 9.5%.

B3 came in with a % parasite recognition of 11.5%.

In turn, B4 had a % parasite recognition of 14.7%.

Take B5: the % parasite recognition was 2.8%.

In turn, B6 showed a % parasite recognition of 1.6%.

The molecule B7 returned a % parasite recognition of 10.2%.

Molecule B8 gave a % parasite recognition of 5.4%.

Consider B9, for which the % parasite recognition was determined as 6.6%.

In the case of B10, the % parasite recognition was 2.9%.

In another test the target is erythrocytes infected with P. falciparum field isolate 11019. The test can be described thus: flow cytometry, staining of IEs. A general note: In flow cytometry, cells or beads pass a laser one at a time.
B1 had a % parasite recognition of 31.1%.

On to B2, for which the % parasite recognition turned out to be 4.3%.

As for B3, the % parasite recognition turned out to be 43%.

B4 registered a % parasite recognition of 33.1%.

On to B5, for which the % parasite recognition is 30%.

Turning to B6, the % parasite recognition was found to be 7.1%.

For B7, the % parasite recognition amounted to 24.6%.

In turn, B8 had a % parasite recognition of 50.8%.

In the case of B9, the % parasite recognition was found to be 6.8%.

Molecule B10 came in with a % parasite recognition of 13.8%.

Another test concerns the target erythrocytes infected with P. falciparum field isolate 9106. Kind of test: flow cytometry, staining of IEs.
The molecule B1 yielded a % parasite recognition of 6.7%.

B2 showed a % parasite recognition of 3.3%.

Molecule B3 yielded a % parasite recognition of 13.7%.

Take B4: the % parasite recognition turned out to be 14.3%.

B5 showed a % parasite recognition of 7.5%.

Molecule B6 gave a % parasite recognition of 1.3%.

B7 gave a % parasite recognition of 10.7%.

For B8, the % parasite recognition amounted to 8.5%.

In turn, B9 yielded a % parasite recognition of 3.8%.

In turn, B10 yielded a % parasite recognition of 6.9%.

The target of a further test is erythrocytes infected with P. falciparum field isolate 9215. The test can be described thus: flow cytometry, staining of IEs.
Take B1: the % parasite recognition is 21.7%.

B2 gave a % parasite recognition of 12%.

As for B3, the % parasite recognition is 37.4%.

B4: the % parasite recognition came to 38.8%.

As to B5, the % parasite recognition came to 10.8%.

B6 registered a % parasite recognition of 16.7%.

B7 gave a % parasite recognition of 22.3%.

On to B8, for which the % parasite recognition is 9.5%.

Turning to B9, the % parasite recognition amounted to 14.7%.

B10 registered a % parasite recognition of 19.3%.

The next test addresses erythrocytes infected with P. falciparum field isolate 9605. Kind of test: flow cytometry, staining of IEs.
Regarding B1, the % parasite recognition came to 22.2%.

B2 returned a % parasite recognition of 17.3%.

For the molecule B3, the % parasite recognition was 31.7%.

As for B4, the % parasite recognition turned out to be 37.2%.

As for B5, the % parasite recognition came out at 20.9%.

Regarding B6, the % parasite recognition was 6.8%.

As for B7, the % parasite recognition was 28.7%.

In turn, B8 displayed a % parasite recognition of 21.1%.

The molecule B9 had a % parasite recognition of 17.2%.

As to B10, the % parasite recognition came to 22.8%.

The target of the next test is erythrocytes infected with P. falciparum field isolate 9775. The test can be described thus: flow cytometry, staining of IEs.
Molecule B1 had a % parasite recognition of 6.1%.

Regarding B2, the % parasite recognition is 6.6%.

With B3, the % parasite recognition came out at 15%.

Take B4: the % parasite recognition worked out at 19.4%.

B5: the % parasite recognition stood at 9.8%.

Consider B6, for which the % parasite recognition turned out to be 2.5%.

Consider B7, for which the % parasite recognition amounted to 14.4%.

On to B8, for which the % parasite recognition was 3.4%.

B9 registered a % parasite recognition of 8.6%.

Regarding B10, the % parasite recognition is 4.6%.
